Data as given in patent US20110154541A1.

Biological target: horse-heart mitochondrial cytochrome c (horse) (UniProt P00004)
Assay: cell-based or functional assay

Sequence of UniProt P00004 (P00004 2-105 limits assumed): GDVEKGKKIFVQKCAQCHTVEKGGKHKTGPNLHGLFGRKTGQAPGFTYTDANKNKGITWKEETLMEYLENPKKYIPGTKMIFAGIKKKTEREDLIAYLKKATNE

Substance: Photosystem II with variant D1 protein D1-K238E, in thylakoid membranes isolated from the Synechocystis sp. PCC 6803 Glu mutant strain (from UniProt P16033 1-344)
- rate of cc reduction (light-dependent, increase of the cc alpha peak at 550 nm), with DCMU (µmol/(mg chl·h)): 20
- rate of cc reduction (light-dependent, increase of the cc alpha peak at 550 nm), without DCMU (µmol/(mg chl·h)): 12
